Each block holds one substance with its values, some of them ahead of it.
Assays:
[1] = target: CW7_Lyz2 (amino acids 142 to 473, two cpl-7 motifs and the glucosaminidase domain of PlyCYU) (Streptococcus suis (prophage λSa2%2C)); assay: SEC-MALS; Superdex 200 Increase 5/150 GL; 20 mM sodium phosphate, pH 7.0, 150 mM NaCl; 10 µL injected at 10 mg/mL; 0.2 mL/min; self-association, oligomeric number from mass over subunit mass
[2] = target: CW7_Lyz2 (amino acids 142 to 473, two cpl-7 motifs and the glucosaminidase domain of PlyCYU) (Streptococcus suis (prophage λSa2%2C)); assay: SEC; SEC-UV; Superdex 200 Increase 10/300 GL; 50 mM phosphate buffer, pH 7.5, 150 mM NaCl; 0.1-0.4 mg/mL protein; 0.5 mL/min; mass from a calibration curve of standard proteins; PlyCYU214 also with 500 mM NaCl; self-association
[3] = target: His6-tagged PlyCYU endolysin (full-length) (Streptococcus suis (prophage λSa2%2C)); assay: SEC-MALS; Superdex 200 Increase 5/150 GL; 20 mM sodium phosphate, pH 7.0, 150 mM NaCl; 10 µL injected at 10 mg/mL; 0.2 mL/min; self-association, oligomeric number from mass over subunit mass
[4] = target: His6-tagged PlyCYU endolysin (full-length) (Streptococcus suis (prophage λSa2%2C)); assay: SEC; SEC-UV; Superdex 200 Increase 10/300 GL; 50 mM phosphate buffer, pH 7.5, 150 mM NaCl; 0.1-0.4 mg/mL protein; 0.5 mL/min; mass from a calibration curve of standard proteins; PlyCYU214 also with 500 mM NaCl; self-association
[5] = target: cyuLyz2 (amino acids 266 to 473, glucosaminidase domain of PlyCYU) (Streptococcus suis (prophage λSa2%2C)); assay: SEC-MALS; Superdex 200 Increase 5/150 GL; 20 mM sodium phosphate, pH 7.0, 150 mM NaCl; 10 µL injected at 10 mg/mL; 0.2 mL/min; self-association, oligomeric number from mass over subunit mass
[6] = target: cyuLyz2 (amino acids 266 to 473, glucosaminidase domain of PlyCYU) (Streptococcus suis (prophage λSa2%2C)); assay: SEC; SEC-UV; Superdex 200 Increase 10/300 GL; 50 mM phosphate buffer, pH 7.5, 150 mM NaCl; 0.1-0.4 mg/mL protein; 0.5 mL/min; mass from a calibration curve of standard proteins; PlyCYU214 also with 500 mM NaCl; self-association

stoichiometry N [1]: 4.4
stoichiometry N [2]: 11.8
Substance: CW7_Lyz2 (amino acids 142 to 473, two cpl-7 motifs and the glucosaminidase domain of PlyCYU) (domain or fragment)

stoichiometry N [3]: 5.2
stoichiometry N [4]: 6.8
Substance: His6-tagged PlyCYU endolysin (full-length) (enzyme)

stoichiometry N [5]: 3.9
stoichiometry N [6]: 6.9
Substance: cyuLyz2 (amino acids 266 to 473, glucosaminidase domain of PlyCYU) (domain or fragment)

From PMC12442389
